Test results published in patent publication US20180312587A1 (ADURO BIOTECH HOLDINGS EUROPE B V, published 2018).
Where two headings read alike, the source gives them in different places.

Assays:
human SIRPα variant 1 [1] = molecular target: T1, human SIRPα variant 1 (human, UniProt P78324 31-504); assay: CELISA, CHO-K1 transfectants
T1 construct: full length ORF on transfected CHO-K1 or HEK293 cells; entry includes the signal peptide; also called hSIRPαV1; SIRPαV1
Protocol: (§1) Reactivity was confirmed using CHO-K1 cells (ATCC CCL-61) expressing a cDNA encoding the full length open reading frame of hSIRPαV1, hSIRPαV1(P74A), hSIRPαV2, and hSIRPβ1 subcloned into the pCI-neo vector (Promega, Madison, Wis.). CHO-K1.hSIRPαV1, CHO-K1.hSIRPαV1(P74A), CHO-K1.hSIRPαV2, and CHO-K1.hSIRPβ1 cells were seeded in culture medium (DMEM-F12 (Gibco) supplemented with 5% New Born Calf Serum (BioWest) and Pen/Strep (Gibco)) in 96-well flat-bottom tissue culture plates and incubated at 37° C., 5% CO₂ and 95% humidity for 24 hours. Subsequently, culture medium was removed and cells were incubated for 1 hour at 37° C., 5% CO₂ and 95% humidity with purified hSIRPα antibodies (used at 10 μg/mL and dilutions thereof). Next, cells were washed with PBS-T and incubated for 1 hour at 37° C., 5% CO₂ and 95% humidity with goat-anti-mouse IgG-HRP (Southern Biotech). Subsequently, cells were washed three times with PBS-T and immunoreactivity against hSIRPαV1, hSIRPαV1(P74A), hSIRPαV2, and hSIRPβ1 was visualized with TMB Stabilized Chromogen (Invitrogen). Reactions were stopped with 0.5 M H₂SO₄ and absorbances were read at 450 and 610 nm.

human SIRPβ1 [2] = molecular target: T2, human SIRPβ1 (human, UniProt O00241 30-398); assay: CELISA, CHO-K1 transfectants
T2 construct: also called hSIRPβ1
T2 sequence (O00241 30-398 limits assumed): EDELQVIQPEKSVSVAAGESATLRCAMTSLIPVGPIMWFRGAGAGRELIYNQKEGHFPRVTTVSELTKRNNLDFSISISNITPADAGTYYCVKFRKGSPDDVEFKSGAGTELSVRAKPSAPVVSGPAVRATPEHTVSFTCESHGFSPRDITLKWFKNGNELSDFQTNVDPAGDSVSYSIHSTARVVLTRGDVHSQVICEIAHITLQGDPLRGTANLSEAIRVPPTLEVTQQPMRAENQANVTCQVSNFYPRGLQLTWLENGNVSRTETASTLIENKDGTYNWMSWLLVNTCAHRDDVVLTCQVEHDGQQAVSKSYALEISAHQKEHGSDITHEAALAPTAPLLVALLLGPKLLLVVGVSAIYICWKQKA
Protocol: as §1

hSIRPαV1(P74A) [3] = molecular target: T3, hSIRPαV1(P74A) (human, UniProt P78324 31-504); assay: CELISA, CHO-K1 transfectants
T3 construct: also called P74A variant of hSIRPαV1
T3 sequence (P78324 31-504 P74A limits assumed): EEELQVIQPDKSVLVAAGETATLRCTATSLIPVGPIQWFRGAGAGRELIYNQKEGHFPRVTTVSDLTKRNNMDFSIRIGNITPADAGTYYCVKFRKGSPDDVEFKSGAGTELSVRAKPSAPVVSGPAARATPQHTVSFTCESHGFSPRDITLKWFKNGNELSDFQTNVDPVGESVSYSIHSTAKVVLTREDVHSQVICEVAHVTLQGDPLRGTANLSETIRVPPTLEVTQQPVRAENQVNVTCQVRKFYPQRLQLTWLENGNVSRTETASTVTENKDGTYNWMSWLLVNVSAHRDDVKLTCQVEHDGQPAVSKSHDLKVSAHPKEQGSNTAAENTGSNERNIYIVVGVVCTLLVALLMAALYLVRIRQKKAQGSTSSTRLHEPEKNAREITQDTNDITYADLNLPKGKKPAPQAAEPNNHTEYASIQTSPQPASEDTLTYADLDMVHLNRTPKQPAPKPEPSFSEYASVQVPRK
Protocol: as §1

human SIRPα variant 1 [4] = molecular target: T1, human SIRPα variant 1; assay: CELISA, CHO-K1 transfectants; remark: listed apart in the source
Protocol: (§2) The specificity of monoclonal anti-hSIRPα antibodies (e.g., including the hSIRPα antibodies known in the art, KWAR23 ([…]. Patent CA2939293 A1), 18D5 (Patent WO2017/178653 A2), and various commercially available hSIRPα antibodies) for binding to hSIRPαV1, hSIRPαV1(P74A), and hSIRPβ1 was evaluated by CELISA. Reactivity was confirmed using CHO-K1 cells (ATCC CCL-61) expressing a cDNA encoding the full length open reading frame of hSIRPαV1, hSIRPαV1(P74A), and hSIRPβ1 subcloned into the pCI-neo vector (Promega, Madison, Wis.). CHO-K1.hSIRPαV1, CHO-K1.hSIRPαV1(P74A), and CHO-K1.hSIRPβ1 cells were seeded in culture medium (DMEM-F12 (Gibco) supplemented with 5% New Born Calf Serum (BioWest) and Pen/Strep (Gibco)) in 96-well flat-bottom tissue culture plates and incubated at 37° C., 5% CO₂ and 95% humidity for 24 hours. Subsequently, culture medium was removed and cells were incubated for 1 hour at 37° C., 5% CO₂ and 95% humidity with purified hSIRPα antibodies (used at 10 μg/ml and dilutions thereof). Next, cells were washed with PBS-T and incubated for 1 hour at 37° C., 5% CO₂ and 95% humidity with either goat-anti-mouse IgG-HRP (Southern Biotech), goat-anti-human IgG-HRP (Jackson Immuno Research), or goat-anti-rabbit IgG-HRP (Southern Biotech). Subsequently, cells were washed three times with PBS-T and immunoreactivity against hSIRPαV1, hSIRPαV1(P74A), and hSIRPβ1 was visualized with TMB Stabilized Chromogen (Invitrogen). Reactions were stopped with 0.5 M H₂SO₄ and absorbances were read at 450 and 610 nm.

human SIRPβ1 [5] = molecular target: T2, human SIRPβ1; assay: CELISA, CHO-K1 transfectants; remark: listed apart in the source
Protocol: as §2

hSIRPαV1(P74A) [6] = molecular target: T3, hSIRPαV1(P74A); assay: CELISA, CHO-K1 transfectants; remark: listed apart in the source
Protocol: as §2

human SIRPα variant 2 = molecular target: T4, human SIRPα variant 2 (human, UniProt P78324 31-504); assay: CELISA, CHO-K1 transfectants; nd = not detected
T4 construct: full length ORF on transfected CHO-K1 cells; also called hSIRPαV2; SIRPαV2
T4 sequence (P78324 other isoform, or with tags, fused parts or gaps mutant limits assumed): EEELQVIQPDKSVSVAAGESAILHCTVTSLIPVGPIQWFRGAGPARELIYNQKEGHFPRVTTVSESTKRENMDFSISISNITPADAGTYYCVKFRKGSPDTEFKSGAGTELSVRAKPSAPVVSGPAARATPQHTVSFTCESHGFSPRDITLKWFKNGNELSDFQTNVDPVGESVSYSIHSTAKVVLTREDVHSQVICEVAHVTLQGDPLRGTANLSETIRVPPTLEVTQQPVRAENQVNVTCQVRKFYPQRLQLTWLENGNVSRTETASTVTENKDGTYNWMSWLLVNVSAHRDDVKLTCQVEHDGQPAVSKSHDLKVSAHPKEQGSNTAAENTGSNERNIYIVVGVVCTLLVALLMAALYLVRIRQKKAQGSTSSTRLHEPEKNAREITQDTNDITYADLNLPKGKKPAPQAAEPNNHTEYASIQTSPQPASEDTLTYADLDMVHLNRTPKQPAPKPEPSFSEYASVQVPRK
Protocol: as §1

human SIRPγ = molecular target: T5, human SIRPγ (human, UniProt Q9P1W8 29-387); assay: flow cytometry, Jurkat E6.1 cells; nd = not detected
T5 construct: on transfected CHO-K1 cells; also called hSIRPγ
T5 sequence (Q9P1W8 29-387 limits assumed): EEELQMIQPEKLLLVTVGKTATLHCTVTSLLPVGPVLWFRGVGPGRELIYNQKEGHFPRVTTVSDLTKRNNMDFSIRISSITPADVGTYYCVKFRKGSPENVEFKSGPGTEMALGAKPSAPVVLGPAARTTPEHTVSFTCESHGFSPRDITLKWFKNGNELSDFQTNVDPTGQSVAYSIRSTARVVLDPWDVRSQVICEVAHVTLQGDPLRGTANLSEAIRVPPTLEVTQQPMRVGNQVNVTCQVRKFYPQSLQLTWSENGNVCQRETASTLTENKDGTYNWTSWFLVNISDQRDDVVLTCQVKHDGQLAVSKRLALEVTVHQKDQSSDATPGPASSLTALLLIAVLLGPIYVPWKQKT
Protocol: Binding to hSIRPγ was assessed by flow cytometry using the Jurkat E6.1 T cell leukemia cell line (ECACC 88042803). Jurkat cells were seeded in 96-well round bottomed tissue culture plates and incubated for 40 minutes with the anti-hSIRPα antibodies (20 μg/mL and dilutions thereof) in PBS/1% BSA at 4° C. […] After this labeling procedure, cells were washed two times, resuspended in PBS/1% BSA, containing 0.1 μg/mL DAPI (BioLegend), and analysed by flow cytometry on the FACSVerse (BD Biosciences). Data were processed and analysed with FlowJo V10 software (FlowJo, LLC).

human SIRPα variant 1 [7] = molecular target: T1, human SIRPα variant 1; assay: flow cytometry, blockade of DyLight488-hCD47/Fc binding to U-937 cells
Protocol: hCD47 blockade for the KWAR23, clone 18D5, and hSIRPα.40A antibodies was assessed by flow cytometry. For this purpose, THP-1 (ATCC TIB-202) and U-937 (ATCC CRL-1593.2) monocyte cell lines were used as the source of hSIRPα in the assay. THP-1 and U-937 cells were seeded in 96-well round bottomed tissue culture plates and incubated for 45 minutes with FcR Blocking Reagent (Miltenyi Biotec) and indicated anti-hSIRPα antibodies (20 μg/mL and dilutions thereof) in PBS/1% BSA at 4° C. […] After this labeling procedure, cells were washed two times, resuspended in PBS/1% BSA containing 0.1 μg/mL DAPI (BioLegend), and analysed by flow cytometry on the FACSVerse (BD Biosciences). Data were processed and analysed with FlowJo V10 software (FlowJo, LLC) and plotted using GraphPad Prism 6 (GraphPad Software, Inc.). Binding of recombinant hCD47 fused to an Fc domain of human IgG1 was monitored in the presence of increasing amounts of the anti-hSIRPα antibodies. […] IC50 values represent the concentration at which half of the inhibition is observed.

T1 sequence (P78324 31-504 limits assumed, change not shown): as the sequence (P78324 31-504 P74A limits assumed) above, with A44P counted along it

B1: 18D5 (antibody, V domains shown)
VH: QVQLQQPGAELVRPGSSVKLSCKASGYTFTSYWVHWVKQRPIQGLEWIGNIDPSDSDTHYNQKFKDKASLTVDKSSSTAYMQLSSLTFEDSAVYYCVRGGTGTMAWFAYWGQGTLVTVSA
VL: DVVMTQTPLSLPVSLGDQASISCRSSQSLVHSYGNTYLYWYLQKPGQSPKLLIYRVSNRFSGVPDRFSGSGSGTDFTLKISRVEAEDLGVYFCFQGTHVPYTFGSGTKLEIK
notes: from WO2017/178653; also called clone 18D5
**Q.** Which EC50 (human SIRPα variant 1 [1]) does the source give for B1 here?
**A.** Its EC50 is 0.134 nM.

**Q.** And the EC50 (human SIRPβ1 [2])?
**A.** The EC50 was 0.055 nM.

**Q.** What about the EC50 (hSIRPαV1(P74A) [3]) of the same binder?
**A.** The EC50 was 0.055 nM.

**Q.** And the EC50 (human SIRPα variant 1 [4])?
**A.** Its EC50 is 0.128 nM.

**Q.** And the EC50 (human SIRPβ1 [5])?
**A.** Its EC50 is 0.064 nM.

**Q.** And the EC50 (hSIRPαV1(P74A) [6])?
**A.** Its EC50 is 0.073 nM.

**Q.** Does B1 bind (human SIRPα variant 2)?
**A.** Result: no binding (tested: 10 µg/mL and dilutions thereof)

**Q.** Does B1 bind (human SIRPγ)?
**A.** Result: no binding (tested: 20 µg/mL and dilutions thereof)

**Q.** What about the IC50 (human SIRPα variant 1 [7]) of the same binder?
**A.** Its IC50 is 1.52 nM.
